Laboratory results as given in the supplement of paper PMC7877785.
± gives the uncertainty stated by the source.

Test: self-splicing fitness, log relative to wild type (ln ratio); higher = more splicing; Tetrahymena group I intron in knt gene, E. coli kanamycin selection, DiMSum; sequences stand for … in CUCUCU…GGAGGGAAAAGUUAUCAGGCAUGCACCUGGUAGCUAGUCUUUAAACCAAUAGAUUGCAUCGGUUUAAAAGGCAAGACCGUCAAAUUGCGGGAAAGGGGUCAACAGCCGUUCAGUACCAAGUCUCAGGGGAAACUUUGAGAUGGCCUUGCAAAGGGUAUGGUAAUAAGCUGACGGACAUGGUCCUAACCACGCAGCCAAGUCCUAAGUCAACAGAUCUUCUGUUGAUAUGGAUGCAGUUCACAGACUAAAUGUCGGUCGGGGAAGAUGUAUUCUUCUCAUAAGAUAUAGUCGGACCUCUCCUUAAUGGGAGCUAGCGGAUGAAGUGAUGCAACACUGGAGCCGCUGGGAACUAAUUUGUAUGCGAAAGUAUAUUGAUUAGUUUUGGAGUACUCGUGGUCG
How it was run: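 Library with all eight P1ex-region intron nucleotides randomised, intron inside the knt kanamycin-resistance gene on pET-22b(+), in E. coli BL21(DE3). Cells grew overnight at 37°C or 30°C on LB agar with or without 25 μg/mL kanamycin (plus 100 μg/mL carbenicillin, 50 μM IPTG, 0.2% rhamnose), in six replicate transformations. Pooled colonies were amplicon-sequenced on Illumina HiSeq 2500. DiMSum fitness is the error-weighted combination of wild-type-normalised replicate fold changes, kanamycin versus none.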

Row | Sequence | self-splicing fitness (ln) (30 °C) | self-splicing fitness (ln) (37 °C)
1 | CAUUAGCAAUAUUACGCUCG | -0.328 ± 0.11 | 0.302 ± 0.13
2 | CAUUAGCAAUAUUACGGAAU | -2.87 ± 0.29 | -2.61 ± 0.31
3 | CAUUAGCAAUAUUACGGACG | -0.114 ± 0.086 | 0.364 ± 0.11
4 | CAUUAGCAAUAUUACGGCAC | -4.19 ± 0.46 | -1.1 ± 0.17
5 | CAUUAGCAAUAUUACGGCGC | -2.01 ± 0.3 | -0.0545 ± 0.24
6 | CAUUAGCAAUAUUACGGGUA | -1.06 ± 0.11 | -0.972 ± 0.13
7 | CAUUAGCAAUAUUACGGUAU | – | -0.876 ± 0.12
8 | CAUUAGCAAUAUUACGGUUU | -3.82 ± 0.2 | -2.68 ± 0.2
9 | CAUUAGCAAUAUUACGUAGG | -0.646 ± 0.08 | -0.199 ± 0.11
10 | CAUUAGCAAUAUUACGUAUG | -3.57 ± 0.2 | -2.9 ± 0.3
11 | CAUUAGCAAUAUUACGUAUU | -4.04 ± 0.4 | -2.37 ± 0.27
12 | CAUUAGCAAUAUUACGUCCA | -3.34 ± 0.32 | -1.3 ± 0.28
13 | CAUUAGCAAUAUUACGUCUU | -3.25 ± 0.27 | -2.33 ± 0.21
14 | CAUUAGCAAUAUUACGUGUA | -2.78 ± 0.18 | -1.57 ± 0.11
15 | CAUUAGCAAUAUUACGUGUU | -3.38 ± 0.18 | -2.69 ± 0.2
16 | CAUUAGCAAUAUUACGUUAC | -3.48 ± 0.2 | -2.17 ± 0.25
17 | CCAAAGCAAUAUUACGAAGC | -3.15 ± 0.36 | –
18 | CCAAAGCAAUAUUACGACAC | – | -3.02 ± 0.25
19 | CCAAAGCAAUAUUACGACGA | -3.11 ± 0.29 | -0.0538 ± 0.26
20 | CCAAAGCAAUAUUACGAGGA | -3.54 ± 0.17 | -2.79 ± 0.18

Row | Sequence | self-splicing fitness (ln) (30 °C) | self-splicing fitness (ln) (37 °C)
21 | CCAAAGCAAUAUUACGAGGC | -4.23 ± 0.27 | -2.46 ± 0.22
22 | CCAAAGCAAUAUUACGCACG | -0.44 ± 0.087 | -0.583 ± 0.11
23 | CCAAAGCAAUAUUACGCCGA | -2.83 ± 0.18 | -3.4 ± 0.23
24 | CCAAAGCAAUAUUACGCGCU | -3.57 ± 0.15 | -3.13 ± 0.17
25 | CCAAAGCAAUAUUACGCUAU | -3.7 ± 0.19 | -2.39 ± 0.23
26 | CCAAAGCAAUAUUACGCUCA | -3.2 ± 0.14 | -2.2 ± 0.16
27 | CCAAAGCAAUAUUACGGAUG | -1.44 ± 0.069 | -1.48 ± 0.1
28 | CCAAAGCAAUAUUACGUAAG | -0.334 ± 0.049 | 0.53 ± 0.071
29 | CCACAGCAAUAUUACGACUU | -4 ± 0.28 | -2.81 ± 0.27
30 | CCACAGCAAUAUUACGAGAG | -2.41 ± 0.067 | -1.25 ± 0.065
31 | CCACAGCAAUAUUACGAGGG | -3.22 ± 0.12 | -3.11 ± 0.22
32 | CCACAGCAAUAUUACGAUUA | -3.92 ± 0.18 | -2.11 ± 0.13
33 | CCACAGCAAUAUUACGAUUU | -4.23 ± 0.19 | -3.01 ± 0.17
34 | CCACAGCAAUAUUACGCAGU | -3.58 ± 0.15 | -2.92 ± 0.19
35 | CCACAGCAAUAUUACGCAUU | -3.53 ± 0.17 | -3.11 ± 0.16
36 | CCACAGCAAUAUUACGCCAG | -2.56 ± 0.15 | -1.07 ± 0.14
37 | CCACAGCAAUAUUACGCCCC | -2.07 ± 0.27 | -2.2 ± 0.4
38 | CCACAGCAAUAUUACGCCGG | -3.23 ± 0.18 | -2.2 ± 0.19
39 | CCACAGCAAUAUUACGCGGA | -3.84 ± 0.21 | -1.01 ± 0.11
40 | CCACAGCAAUAUUACGCGGU | -3.46 ± 0.17 | -1.94 ± 0.15

Row | Sequence | self-splicing fitness (ln) (30 °C) | self-splicing fitness (ln) (37 °C)
41 | CCACAGCAAUAUUACGCGUC | -3.13 ± 0.16 | -3.14 ± 0.27
42 | CCACAGCAAUAUUACGCGUG | -3.86 ± 0.18 | -2.38 ± 0.14
43 | CCACAGCAAUAUUACGGAAA | -3.47 ± 0.23 | -3.54 ± 0.29
44 | CCACAGCAAUAUUACGGACG | -0.832 ± 0.05 | -0.23 ± 0.066
45 | CCACAGCAAUAUUACGGAGA | -3.01 ± 0.21 | -1.77 ± 0.17
46 | CCACAGCAAUAUUACGGCUC | -3.39 ± 0.18 | -1.79 ± 0.16
47 | CCACAGCAAUAUUACGGGUU | -3.68 ± 0.16 | -2.58 ± 0.21
48 | CCACAGCAAUAUUACGGUAC | -4.19 ± 0.19 | -2.55 ± 0.18
49 | CCACAGCAAUAUUACGGUUG | -1.72 ± 0.047 | -0.701 ± 0.058
50 | CCACAGCAAUAUUACGUACG | -0.647 ± 0.047 | -0.02 ± 0.063
51 | CCACAGCAAUAUUACGUCUG | -3.12 ± 0.088 | -1.98 ± 0.083
52 | CCACAGCAAUAUUACGUGAC | -3.38 ± 0.16 | -2.01 ± 0.13
53 | CCACAGCAAUAUUACGUGCC | -1.6 ± 0.15 | -2.36 ± 0.21
54 | CCACAGCAAUAUUACGUUCG | -1.21 ± 0.048 | -0.208 ± 0.069
55 | CCAGAGCAAUAUUACGAACG | -0.512 ± 0.081 | 0.191 ± 0.1
56 | CCAGAGCAAUAUUACGAAGU | -4.41 ± 0.46 | -2.8 ± 0.34
57 | CCAGAGCAAUAUUACGAAUU | -4 ± 0.28 | -3.11 ± 0.43
58 | CCAGAGCAAUAUUACGAGAG | -2.95 ± 0.21 | -1.39 ± 0.23
59 | CCAGAGCAAUAUUACGAGCG | -0.698 ± 0.084 | -0.775 ± 0.14
60 | CCAGAGCAAUAUUACGAUAA | -3.17 ± 0.29 | -2.04 ± 0.2
